Values joined by “and” are separate entries in the source; they are usually repeats but may differ in a detail not shown here. Equal values may be shown once.
What was measured:
[1] = molecular target: mouse CTLA4-Fc fusion protein (mouse) (UniProt P09793); assay: ELISA, binding to plate-bound mouse CTLA4-Fc
[2] = molecular target: human CTLA-4Fc mutant protein M11 (human); assay: ELISA on coated target; binder 10 ng/ml
mouse CTLA4-Fc (mouse) [3] = molecular target: mouse CTLA4-Fc (mouse) (UniProt P09793); assay: ELISA on coated target; binder 10 ng/ml
[4] = molecular target: human CTLA-4Fc mutant protein M11 (human); assay: ELISA on coated target; binder 100 ng/ml
mouse CTLA4-Fc (mouse) [5] = molecular target: mouse CTLA4-Fc (mouse) (UniProt P09793); assay: ELISA on coated target; binder 100 ng/ml
[6] = molecular target: human CTLA-4Fc mutant protein M11 (human); assay: ELISA on coated target; binder 1000 ng/ml
mouse CTLA4-Fc (mouse) [7] = molecular target: mouse CTLA4-Fc (mouse) (UniProt P09793); assay: ELISA on coated target; binder 1000 ng/ml
[8] = molecular target: human CTLA-4Fc mutant protein M11 (human); assay: ELISA on coated target; binder 0 (background)
mouse CTLA4-Fc (mouse) [9] = molecular target: mouse CTLA4-Fc (mouse) (UniProt P09793); assay: ELISA on coated target; binder 0 (background)

Chain of human CTLA-4Fc mutant protein M11 (human) (chain, as listed by the source mutant limits assumed): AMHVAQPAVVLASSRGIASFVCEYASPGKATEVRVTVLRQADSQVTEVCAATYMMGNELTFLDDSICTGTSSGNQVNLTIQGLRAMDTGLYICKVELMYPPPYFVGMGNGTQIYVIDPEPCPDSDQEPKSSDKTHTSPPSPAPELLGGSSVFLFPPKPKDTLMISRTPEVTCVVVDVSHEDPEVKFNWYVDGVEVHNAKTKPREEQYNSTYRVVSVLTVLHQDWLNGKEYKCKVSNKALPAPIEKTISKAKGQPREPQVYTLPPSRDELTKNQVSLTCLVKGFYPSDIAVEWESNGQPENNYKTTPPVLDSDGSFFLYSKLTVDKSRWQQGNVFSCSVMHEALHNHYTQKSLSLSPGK

B1: anti-mouse CTLA4 mAb 9H10 (antibody, from another filing)
scFv: YPYDVPDYAGAQPARSDIVMTQSPSSLAVSVGEKVTISCKSSQSLLYGSSHYLAWYQQKVGQSPKLLIYWASTRHTGIPDRFIGSGSGTDFTLSLSSVQAEDMADYFCQQYFSTPWTFGAGTRVEIKSGSGGGSGGGSGGGSQVQLLQSESELVKPGASVKLSCKTSGYTFTDYYIHWVKQKPGQGLEWIGLINPNNDGTNYNQKFQGKATLTADKSSSTAYMELNSLTFDDSVIYFCARASSRLRMARTTSDYYAMDYWGQGIQVTVSSVDSSGSGGCKPCICTVPEVSSVFIFPPKPKDVLTITLTPKVTCVVVDISKDDPEVQFSWFVDDVEVHTAQTQPREEQFNSTFRSVSELPIMHQDWLNGKEFKCRVNSAAFPAPIEKTISKTKGRPKAPQVYTIPPPKEQMAKDKVSLTCMITDFFPEDITVEWQWNGQPAENYKNTQPIMDTDGSYFVYSKLNVQKSNWEAGNTFTCSVLHEGLHNHHTEKSLSHSPGK
EC50 (read off the curve) [1]: 1 µg/mL

B2: chimeric L3D10 antibody (antibody, V domains shown)
VH: QVQLKESGPGLVAPSQSLSITCTVSGFSLTSYGLSWVRQPPGKGLEWLGVIWYDGNTNFHSALISRLTISKDNSKSQVFLELNSLQTDDTATYYCAKTEGHYYGSNYGYYALDYWGQGTSVTVSS
VL: DIQMTQSPASLSVSVGETVTITCRASENIYSNLAWYQQKQGKSPQLLVYAATNLADGVPSRFSGSGSGTQYSLKINSLQSEDFGTYFCQHLWGTPYTFGGGTKLEIKR
modifications: biotinylated (sites not given)
OD450 [2]: 0.19 OD and 0.194 OD
OD450 (mouse CTLA4-Fc (mouse) [3]): 0.201 OD and 0.18 OD
OD450 [4]: 0.752 OD and 0.746 OD
OD450 (mouse CTLA4-Fc (mouse) [5]): 0.303 OD and 0.314 OD
OD450 [6]: 2.89 OD and 2.91 OD
OD450 (mouse CTLA4-Fc (mouse) [7]): 0.942 OD and 0.94 OD
OD450 [8]: 0.171 OD and 0.155 OD
OD450 (mouse CTLA4-Fc (mouse) [9]): 0.19 OD and 0.189 OD

— patent US20190127468A1
